{
  "source": "patent US20220002701A1",
  "about": "(CHILDREN S MEDICAL CENTER, published 2022)",
  "key": {"[1]": {"target": "T1, stabilized soluble SARS-CoV-2 S ectodomain trimer in the pre-fusion conformation (SARS-CoV-2; bacteriophage T4, UniProt P0DTC2 14-1208; P10104 458-484)", "T1 construct": "also called soluble S trimer; S trimer"}, "[2]": {"target": "T1, stabilized soluble SARS-CoV-2 S …", "remark": "listed apart in the source"}},
  "note": "Where two headings read alike, the source gives them in different places.",
  "data": [
    {"binder": "ACE2615-foldon-K353Y (receptor, also called Sol-ACE2-Foldon-K353Y) QSTIEEQAKTFLDKFNHEAEDLFYQSSLASWNYNTNITEENVQNMNNAGDKWSAFLKEQSTLAQMYPLQEIQNLTVKLQLQALQQNGSSVLSEDKSKRLNTILNTMSTIYSTGKVCNPDNPQECLLLEPGLNEIMANSLDYNERLWAWESWRSEVGKQLRPLYEEYVVLKNEMARANHYEDYGDYWRGDYEVNGVDGYDYSRGQLIEDVEHTFEEIKPLYEHLHAYVRAKLMNAYPSYISPIGCLPAHLLGDMWGRFWTNLYSLTVPFGQKPNIDVTDAMVDQAWDAQRIFKEAEKFFVSVGLPNMTQGFWENSMLTDPGNVQKAVCHPTAWDLGYGDFRILMCTKVTMDDFLTAHHEMGHIQYDMAYAAQPFLLRNGANEGFHEAVGEIMSLSAATPKHLKSIGLLSPDFQEDNETEINFLLKQALTIVGTLPFTYMLEKWRWMVFKGEIPKDQWMKKWWEMKREIVGVVEPVPHDETYCDPASLFHVSNDYSFIRYYTRTLYQFQFQEALCQAAKHEGPLHKCDISNSTEAGQKLFNMLRLGKSEPWTLALENVVGAKNMNVRPLLNYFEPLFTWLKDQNKNSFVGWSTDWSPYADSGGGGSGGYIPEAPRDGQAYVRKDGEWVLLSTFLGGSHHHHHH", "values": [
      {"measurement": "Kd", "setting": "[1]", "result": 32.3, "unit": "nM"},
      {"measurement": "Kd", "setting": "[2]", "result": 32.3, "unit": "nM"},
      {"measurement": "ka2", "setting": "[2]", "result": 0.397},
      {"measurement": "kdis2", "setting": "[2]", "result": 0.00545},
      {"measurement": "koff", "setting": "[2]", "result": 0.00322, "unit": "s⁻¹"},
      {"measurement": "kon", "setting": "[2]", "result": 99600, "unit": "M⁻¹ s⁻¹"}
    ]}
  ]
}
